From patent US20060264369, “Aptamers to von Willebrand Factor and their use as thrombotic disease therapeutics” (published 2006)

How the values were obtained:
[1] = target: T1, von Willebrand factor full length (Homo sapiens, UniProt P04275 SEQ:764-2813); assay: filter; 26% bound at 100 nM vWF; conditions: tags: Calbiochem 681300; label: 5'-32P
Description: (§1) For KD determination, chemically synthesized aptamers were purified using denaturing polyacrylamide gel electrophoresis, 5′end labeled with γ-³²P ATP and were tested for direct binding to full length human vWF (Calbiochem Cat.# 681300, La Jolla, Calif.). An 8 point protein titration was used in the dot blot binding assay (100 nM, 30 nM, 10 nM, 3 nM, 1 nM, 300 pM, 100 pM, 0 pM)) in 1× Dulbecco's PBS containing […] (final volume of 50 uL) for 30 minutes at room temperature. KD values were calculated by fitting the equation y=(max/(1+K/protein))+yint using KaleidaGraph (KaleidaGraph v. 3.51, Synergy Software).

[2] = target: T2, von Willebrand factor A1 domain (Homo sapiens, UniProt P04275 SEQ:13-246); assay: filter; no binding; conditions: label: 5'-32P
[3] = target: T1, von Willebrand factor full length; assay: filter; no binding; conditions: tags: Calbiochem 681300; label: 5'-32P
Description: as §1

[4] = target: T1, von Willebrand factor full length; assay: filter; DPBS, 0.1 mg/mL BSA, RT; conditions: tags: Calbiochem 681300; label: 5'-32P
Description: Based on this initial screen, KDs were determined for 3 of the vWF dependent binding sequences using the dot blot assay. […] A 12 point protein titration was used in the dot blot assay (300 nM, 100 nM, 30 nM, 10 nM, 3 nM, 1 nM, 300 pM, 100 pM, 30 pM, 10 pM, 3 pM, 0 pM) in 1× DPBS plus 0.1 mg/mL BSA at room temperature for 30 minutes. KD values were calculated by fitting the equation y=(max/(1+K/protein))+yint using KaleidaGraph (KaleidaGraph v. 3.51, Synergy Software).

[5] = target: T1, von Willebrand factor full length; assay: filter; DPBS, 0.1 mg/mL BSA, RT; conditions: tags: Calbiochem 681300; label: 5'-32P; remark: listed apart in the source
Description: (§2) KD values were calculated by fitting the equation y=(max/(1+K/protein))+yint using KaleidaGraph (KaleidaGraph v. 3.51, Synergy Software).

[6] = target: T2, von Willebrand factor A1 domain; assay: filter; DPBS, 0.1 mg/mL BSA, RT; conditions: label: 5'-32P
Description: as §2

[7] = target: T1, von Willebrand factor full length; assay: filter; 43% bound at 100 nM; conditions: tags: Calbiochem 681300
Description: as §1

[8] = target: T1, von Willebrand factor full length; assay: cell_activity; IC90 BIPA in human platelet rich plasma
Description: In order to determine the activity of aptamers on live human platelets, BIPA assays were done using freshly prepared platelet rich plasma. Blood was obtained from healthy human donors who had not taken NSAIDS for at least five days. […] Collected blood was pooled into 15 mL conical tubes and was spun at 200 g for 20 minutes. The turbid, yellow layer of platelet rich plasma (“PRP”) was withdrawn from the tubes, pooled, and set aside at room temperature. The remaining blood was spun at 2500 g for ten minutes. The clarified layer of plasma, known as platelet poor plasma (“PPP”), was withdrawn and set aside at room temperature. PRP was aliquoted into cuvettes containing stir bars at a volume of 470 uL. A sample of 500 uL of PPP was aliquoted into a cuvette and placed in the PPP reference cell of the platelet aggregometer. Samples of PRP were prewamed at 37 degrees C. in the platelet aggregometer for 3-5 minutes before being used in BIPA assays. First, the concentration of botrocetin needed to induce platelet aggregation for each individual donor was determined by titration. This concentration of botrocetin was used for the remainder of the experiment. Next, aptamer was assayed by adding titrations of aptamer (zero, 1 nM to 1000 nM) to prewarmed PRP for one minute, followed by addition of botrocetin. With platelet aggregation, an increase in amplitude of light transmission is seen (FIG. 8). The concentration at which platelet aggregation is blocked at 90% or greater after 6 minutes is reported in the final column of Table 26.

[9] = target: T1, von Willebrand factor full length; assay: filter; 50% bound at 100 nM; conditions: tags: Calbiochem 681300
Description: as §1

For CCGGCCGTGCGGTGCCUCCGUCACGUUCCGUGCAGUGCCGG (mixed, 2'-OMe/deoxy composite, single PS, 3'-idT) [ARC1546], the Kd [1] was 24 nM.

CCAGCGGAATGAGAATGCTGATGGATTGCTCAGGTCTGCTGG (ssDNA) [DNA1 minimer SEQ 204]: no binding [2].

CGATCTGACTAGCGGAATGAGAATGCTGGTGGATCG (ssDNA) [DNA1 minimer SEQ 206]: no binding [2].

GGCGUGCAGUGCUUCGCCGTGCGGTGCCUCCGUCACGCC (mixed, 2'-OMe/deoxy composite, 3'-idT) [ARC1347]: no binding [3].

B1: AMX237.G6 (ssDNA)
DNA: CTACCTACGATCTGACTAGCGTGCAGTGCCTATTCCAGGCCGTGCGGTGCCTCCGTCACGCTTACTCTCATGTAGTTCC
With B1 the Kd [4] was 0.2 nM.

B2: AMX238.E9 (ssDNA)
DNA: CTACCTACGATCTGACTAGCGTGCAGTGCCCATCTTAGGCCGTGCGGTGCCTCCGTCACGCTTACTCTCATGTAGTTCC
Binder B2 has a Kd [4] of 0.39 nM.

B3: AMX238.H5 (ssDNA)
DNA: CTACCTACGATCTGACTAGCGTGCAGTGCCTATTCTAGGCCGTGCGGTGCCTCCGTCACGCTTACTCTCATGTAGTTCC
For B3, the Kd [4] was 0.33 nM.

With GGAGCCACGGGGTGGGTAGACGGCGGGTATGTGGCTCC (mixed, 2'-OH purines, deoxy pyrimidines) [rRdY minimer SEQ 180] the Kd [5] was 1 nM and the Kd [6] was 11 nM.

Work on GGAGCCACACGACATTGGCGGGCGAGAGCCACGCATGGCTCC (mixed, 2'-OH purines, deoxy pyrimidines) [rRdY minimer SEQ 192] yielded a Kd [5] of 2 nM and a Kd [6] of 4 nM.

GGCCACACGACATTGGCGGGCGAGAGCCACGCATGGCC (mixed, 2'-OH purines, deoxy pyrimidines) [rRdY minimer SEQ 198] showed a Kd [5] of 3 nM and a Kd [6] of 5 nM.

GGCGTGCAGTGCCTTCGGCCGTGCGGTGCCTCCGTCACGCC (ssDNA, 2'-OMe C30, 3'-idT) [ARC1223] showed a Kd [1] of 36 nM.

Binder GGCGUGCAGUGCCUUCGGCCGTGCGGTGCCTCCGTCACGCC (mixed, 2'-OMe at 1-5, 9-19, 37-41, 3'-idT) [ARC1341] has a Kd [1] of 22.5 nM.

Binder GGCGTGCAGTGCCTTCGGCCGTGCGGTGCCTCCGTCACGCC (ssDNA, 2'-OMe at 28; 3'-idT) [ARC1221] has a Kd [7] of 1 nM.

B4: ARC1779 (mixed)
mixed: GCGUGCAGUGCCUUCGGCCGTGCGGTGCCUCCGUCACGC
modifications: 2'-OMe at 1-4,8-18,20,22,27,28,30,33,34,36-39, rest deoxy; PS between 20 and 21; 5'-PEG20K-hexylamine; 3'-idT
In the case of B4, the activity [8] is reported as roughly 100 nM.

B5: ARC1780 (mixed)
mixed: GCGUGCAGUGCCUUCGGCCGTGCGGTGCCUCCGUCACGC
modifications: 2'-OMe at 1-4,8-18,20,22,27,28,30,33,34,36-39, rest deoxy; PS between 20 and 21; 5'-PEG40K-hexylamine; 3'-idT [2'-OMe at 1-4,8-18,20,22,27,28,30,33,34,36-39, rest deoxy; PS between 20 and 21 (printed S left out); 5'-PEG40K-hexylamine (left out); 3'-idT at 40]
B5 was tested, and the activity [8] was roughly 100 nM.

GGCGTGCAGTGCCTTCGGCCGTGCGGTGCCTCCGTCACGCC (ssDNA, 5'-PEG20K-hexylamine; 3'-idT) [ARC1885] was tested, and the activity [8] was roughly 50 nM.

GGCGTGCAGTGCCTTCGGCCGTGCGGTGCCTCCGUCACGCC (ssDNA, 2'-OMe at 35 (mU); 3'-idT) [ARC1228] showed a Kd [7] of 2 nM.

With GGCGTGCAGTGCCTTCGGCCGTGCGGTGCCTCCGTCACGCC (ssDNA, 2'-OMe at 38; 3'-idT) [ARC1231] the Kd [9] was 1 nM.

GGCGTGCAGTGCCTTCGGCCGTGCGGTGCCTCCGTCACGCC (ssDNA, 2'-OMe at 11,17,18; 3'-idT) [ARC1238] gave a Kd [7] of 2 nM.

With GGCGTGCAGTGCCTTCGGCCGTGCGGTGCCTCCGTCACGCC (ssDNA, 2'-OMe at 12; 3'-idT) [ARC1205] the Kd [9] was 1 nM.

GGCGTGCAGTGCCTTCGGCCGTGCGGTGCCTCCGTCACGCC (ssDNA, 2'-OMe at 13; 3'-idT) [ARC1206] showed a Kd [9] of 2 nM.
